Assay results reported in the supplement of paper PMC9112550, “Optimization of the antimicrobial peptide Bac7 by deep mutational scanning” (BMC Biology, 2022).

Tested on: Escherichia coli TOP10
Experiment: shrunken log2 fold change of peptide-encoding DNA abundance (4.5 h post-induction vs induction); higher = less antimicrobial activity (less host growth inhibition)
Settings: time post-induction: 4.5 h; library: site-saturation at positions 5, 18, 19, 20
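Also: peptides expressed intracellularly from a pBAD plasmid library in pooled LB shake-flask culture, induced with 0.3% L-arabinose, DNA abundance read by NGS, three biological replicates, DESeq2 with apeglm shrinkage.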

Row | Sequence | shrunken log2 fold change
1 | RRIRYRPPRLPRPRPRPKAVPRP | -0.163
2 | RRIRRRPPRLPRPRPRPFRDPRP | 0.506
3 | RRIRNRPPRLPRPRPRPAVCPRP | 0.158
4 | RRIRRRPPRLPRPRPRPCCQPRP | 0.0136
5 | RRIRGRPPRLPRPRPRPWALPRP | -0.115
6 | RRIRARPPRLPRPRPRPLVLPRP | 0.157
7 | RRIRERPPRLPRPRPRPMWMPRP | -0.0314
8 | RRIRHRPPRLPRPRPRPSFPPRP | -0.207
9 | RRIRARPPRLPRPRPRPNGMPRP | -0.0336
10 | RRIRFRPPRLPRPRPRPKGNPRP | -0.047
11 | RRIRDRPPRLPRPRPRPGHHPRP | 0.0913
12 | RRIRTRPPRLPRPRPRPWCIPRP | -0.19
13 | RRIRHRPPRLPRPRPRPEIFPRP | -0.0725
14 | RRIRKRPPRLPRPRPRPHRRPRP | 3.99
15 | RRIRKRPPRLPRPRPRPTDAPRP | 0.05
16 | RRIRCRPPRLPRPRPRPPGTPRP | 0.519
17 | RRIRARPPRLPRPRPRPNFGPRP | 0.324
18 | RRIRWRPPRLPRPRPRPNPYPRP | -0.133
19 | RRIRCRPPRLPRPRPRPVHWPRP | -0.21
20 | RRIRMRPPRLPRPRPRPSGWPRP | 0.934
21 | RRIRRRPPRLPRPRPRPKCKPRP | -0.0255
22 | RRIRHRPPRLPRPRPRPREAPRP | -0.0215
23 | RRIRARPPRLPRPRPRPSQLPRP | 0.262
24 | RRIRMRPPRLPRPRPRPASSPRP | -0.00458
25 | RRIRSRPPRLPRPRPRPLYKPRP | -0.486

Row | Sequence | shrunken log2 fold change
26 | RRIRMRPPRLPRPRPRPTILPRP | -0.0108
27 | RRIRGRPPRLPRPRPRPSHSPRP | 0.0319
28 | RRIRVRPPRLPRPRPRPYPCPRP | 3.36e-05
29 | RRIRWRPPRLPRPRPRPMHLPRP | -0.317
30 | RRIRIRPPRLPRPRPRPMHPPRP | 0.00185
31 | RRIRDRPPRLPRPRPRPQAKPRP | -0.0241
32 | RRIRWRPPRLPRPRPRPLPWPRP | 0.244
33 | RRIRCRPPRLPRPRPRPPFSPRP | 0.236
34 | RRIRPRPPRLPRPRPRPAVCPRP | 0.245
35 | RRIRERPPRLPRPRPRPPNNPRP | -0.186
36 | RRIRQRPPRLPRPRPRPGPPPRP | 0.462
37 | RRIRSRPPRLPRPRPRPIGKPRP | 0.0386
38 | RRIRYRPPRLPRPRPRPSYKPRP | -1.22
39 | RRIRIRPPRLPRPRPRPELDPRP | 0.0332
40 | RRIRSRPPRLPRPRPRPRRRPRP | 0.312
41 | RRIRNRPPRLPRPRPRPMPGPRP | 0.0352
42 | RRIRIRPPRLPRPRPRPKQHPRP | -0.307
43 | RRIRDRPPRLPRPRPRPRLVPRP | 0.314
44 | RRIRERPPRLPRPRPRPYIRPRP | -1.16
45 | RRIRHRPPRLPRPRPRPFEIPRP | -0.0931
46 | RRIRCRPPRLPRPRPRPPQMPRP | 0.0913
47 | RRIRCRPPRLPRPRPRPLYNPRP | -1.22
48 | RRIRERPPRLPRPRPRPAGQPRP | -0.195
49 | RRIRNRPPRLPRPRPRPDMWPRP | -0.119
50 | RRIRMRPPRLPRPRPRPEAYPRP | 0.036

Row | Sequence | shrunken log2 fold change
51 | RRIRPRPPRLPRPRPRPSVAPRP | 0.0839
52 | RRIRCRPPRLPRPRPRPVFQPRP | -0.0498
53 | RRIRLRPPRLPRPRPRPMQNPRP | 0.141
54 | RRIRIRPPRLPRPRPRPKKDPRP | -0.602
55 | RRIRKRPPRLPRPRPRPVYGPRP | -0.0742
56 | RRIRERPPRLPRPRPRPVHAPRP | -0.0762
57 | RRIRFRPPRLPRPRPRPENLPRP | -0.0251
58 | RRIRHRPPRLPRPRPRPFMHPRP | -0.377
59 | RRIRPRPPRLPRPRPRPPCRPRP | 0.339
60 | RRIRERPPRLPRPRPRPHLRPRP | -0.173
61 | RRIRDRPPRLPRPRPRPSPGPRP | 0.241
62 | RRIRQRPPRLPRPRPRPIIMPRP | -0.25
63 | RRIRHRPPRLPRPRPRPCSMPRP | -0.0569
64 | RRIRDRPPRLPRPRPRPMDDPRP | -0.000946
65 | RRIRGRPPRLPRPRPRPMREPRP | -0.00527
66 | RRIRVRPPRLPRPRPRPAWDPRP | 0.258
67 | RRIRSRPPRLPRPRPRPLYAPRP | -0.164
68 | RRIRRRPPRLPRPRPRPMELPRP | 0.212
69 | RRIRRRPPRLPRPRPRPSPRPRP | 1.03
70 | RRIRVRPPRLPRPRPRPCCYPRP | -0.272
71 | RRIRVRPPRLPRPRPRPEYKPRP | -0.501
72 | RRIRNRPPRLPRPRPRPEESPRP | 0.013
73 | RRIRSRPPRLPRPRPRPVFMPRP | -0.236
74 | RRIRMRPPRLPRPRPRPQLMPRP | 0.0471
75 | RRIRLRPPRLPRPRPRPMYHPRP | -0.493

Row | Sequence | shrunken log2 fold change
76 | RRIRNRPPRLPRPRPRPEGGPRP | -0.00659
77 | RRIRHRPPRLPRPRPRPIKVPRP | 0.172
78 | RRIRCRPPRLPRPRPRPCENPRP | 0.0291
79 | RRIRVRPPRLPRPRPRPRGVPRP | 0.278
80 | RRIRLRPPRLPRPRPRPETAPRP | 0.325
81 | RRIRWRPPRLPRPRPRPGVLPRP | 0.0321
82 | RRIRVRPPRLPRPRPRPVLHPRP | -0.243
83 | RRIRERPPRLPRPRPRPDNYPRP | -0.0933
84 | RRIRPRPPRLPRPRPRPNMMPRP | -0.593
85 | RRIRWRPPRLPRPRPRPDITPRP | 0.179
86 | RRIRWRPPRLPRPRPRPGMRPRP | 0.976
87 | RRIRHRPPRLPRPRPRPRRYPRP | 0.0129
88 | RRIRARPPRLPRPRPRPWLAPRP | 0.162
89 | RRIRARPPRLPRPRPRPSGYPRP | 0.094
90 | RRIRWRPPRLPRPRPRPKTQPRP | 0.0326
91 | RRIRSRPPRLPRPRPRPILSPRP | -0.329
92 | RRIRGRPPRLPRPRPRPIFTPRP | 0.284
93 | RRIRNRPPRLPRPRPRPHEEPRP | -0.0188
94 | RRIRPRPPRLPRPRPRPGEPPRP | 0.0896
95 | RRIRERPPRLPRPRPRPWCDPRP | -0.508
96 | RRIRMRPPRLPRPRPRPYYAPRP | -0.948
97 | RRIRDRPPRLPRPRPRPCDAPRP | -0.0239
98 | RRIRARPPRLPRPRPRPTAAPRP | 1.05
99 | RRIRPRPPRLPRPRPRPPNEPRP | -0.0989
100 | RRIRVRPPRLPRPRPRPDAVPRP | 0.141

Row | Sequence | shrunken log2 fold change
101 | RRIRSRPPRLPRPRPRPSVAPRP | 0.575
102 | RRIRSRPPRLPRPRPRPGDYPRP | -0.0123
103 | RRIRSRPPRLPRPRPRPPWGPRP | 0.317
104 | RRIRPRPPRLPRPRPRPYHFPRP | -0.245
105 | RRIRDRPPRLPRPRPRPIIRPRP | -0.0604
106 | RRIRKRPPRLPRPRPRPQIEPRP | 0.0198
107 | RRIRKRPPRLPRPRPRPQKGPRP | -0.0581
108 | RRIRNRPPRLPRPRPRPARSPRP | 0.679
109 | RRIRNRPPRLPRPRPRPRTMPRP | 0.135
110 | RRIRPRPPRLPRPRPRPCCSPRP | -0.556
111 | RRIRDRPPRLPRPRPRPQRDPRP | 0.0917
112 | RRIRCRPPRLPRPRPRPTMHPRP | -0.112
113 | RRIRCRPPRLPRPRPRPVPFPRP | -0.132
114 | RRIRCRPPRLPRPRPRPATTPRP | 0.151
115 | RRIRRRPPRLPRPRPRPTNIPRP | -0.304
116 | RRIRARPPRLPRPRPRPLRFPRP | 0.396
117 | RRIRHRPPRLPRPRPRPQDHPRP | -0.215
118 | RRIRARPPRLPRPRPRPGKLPRP | 0.149
119 | RRIRRRPPRLPRPRPRPDYSPRP | -0.263
120 | RRIRNRPPRLPRPRPRPMGQPRP | 0.128
121 | RRIRLRPPRLPRPRPRPTLPPRP | 0.223
122 | RRIRKRPPRLPRPRPRPDAGPRP | -0.034
123 | RRIRVRPPRLPRPRPRPWPKPRP | 0.0246
124 | RRIRDRPPRLPRPRPRPIPWPRP | 0.077
125 | RRIRPRPPRLPRPRPRPPHHPRP | 0.188

Row | Sequence | shrunken log2 fold change
126 | RRIRIRPPRLPRPRPRPNHEPRP | 0.042
127 | RRIRRRPPRLPRPRPRPKPNPRP | 0.531
128 | RRIRPRPPRLPRPRPRPILWPRP | 0.0824
129 | RRIRTRPPRLPRPRPRPWCQPRP | -0.134
130 | RRIRLRPPRLPRPRPRPVGDPRP | 0.416
131 | RRIRMRPPRLPRPRPRPMRKPRP | 0.361
132 | RRIRFRPPRLPRPRPRPDYYPRP | -1.21
133 | RRIRNRPPRLPRPRPRPKIKPRP | -0.256
134 | RRIRERPPRLPRPRPRPVCQPRP | 0.121
135 | RRIRMRPPRLPRPRPRPNIVPRP | 0.0335
136 | RRIRLRPPRLPRPRPRPVYEPRP | 0.788
137 | RRIRYRPPRLPRPRPRPSNNPRP | -1.42
138 | RRIRARPPRLPRPRPRPSSNPRP | 1.2
139 | RRIRMRPPRLPRPRPRPVNEPRP | 0.0186
140 | RRIRERPPRLPRPRPRPWHVPRP | -0.0018
141 | RRIRCRPPRLPRPRPRPWHYPRP | -0.51
142 | RRIRPRPPRLPRPRPRPTDMPRP | 0.157
143 | RRIRNRPPRLPRPRPRPEFVPRP | 0.189
144 | RRIRCRPPRLPRPRPRPGLCPRP | 0.291
145 | RRIRPRPPRLPRPRPRPHRAPRP | 0.402
146 | RRIRCRPPRLPRPRPRPAAFPRP | 0.292
147 | RRIRRRPPRLPRPRPRPACFPRP | 0.456
148 | RRIRARPPRLPRPRPRPHAIPRP | 0.0503
149 | RRIRWRPPRLPRPRPRPWLAPRP | -0.168
150 | RRIRYRPPRLPRPRPRPSRPPRP | -0.084
